Assay results published in patent US20150329637A1 (NUMAB, published 2015).
Read-outs that look alike come from different tables or passages of the source. One block for each binder: values may come before it.

Columns and labels:
[1] = target: mouse CD3 (mouse CD36E [sic], Sino Biologicals Inc., Cat. No. CT033-M2508H) (mouse) (UniProt P22646); experiment: SPR
[2] = target: T1, mouse IL23R Fc chimera (R&D Systems, Cat. No. 1686-MR-050) (mouse, UniProt Q8K4B4 24-372); experiment: SPR; IL23R Fc chimera captured by anti-human Fc, scFv injected
T1 construct: Bought reagent; Fc part of the bought chimera not given
T1 sequence (looked up): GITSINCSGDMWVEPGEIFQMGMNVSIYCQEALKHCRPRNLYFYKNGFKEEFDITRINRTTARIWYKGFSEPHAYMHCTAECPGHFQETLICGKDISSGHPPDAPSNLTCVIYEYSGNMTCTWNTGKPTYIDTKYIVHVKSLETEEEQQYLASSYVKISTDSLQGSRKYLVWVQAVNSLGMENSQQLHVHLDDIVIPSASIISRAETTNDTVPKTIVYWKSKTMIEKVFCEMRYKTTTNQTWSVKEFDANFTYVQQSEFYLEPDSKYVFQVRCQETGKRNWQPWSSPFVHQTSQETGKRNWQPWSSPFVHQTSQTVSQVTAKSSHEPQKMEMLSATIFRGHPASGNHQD
Experimental: (§1) Binding affinities of anti-IL23R scFvs were measured by surface plasmon resonance (SPR) using a MASS-1 SPR instrument (Sierra Sensors). […] After immobilization, 1 ug/ml recombinant human IL23R Fc chimera (R&D Systems, Cat. No. 1400-IR-050) was captured by the anti-human IgG antibody while a second immobilized channel served as a control where the capture was replaced by buffer. Two-fold serial dilutions of human scFvs ranging from 180 to 2.81 nM were injected into both flow cells for 3 min and dissociation of the scFvs from the chimera on the sensor chip was allowed to proceed for 700 sec. After each injection cycle, surfaces were regenerated with two 1 min injections of 10 mM glycine-HCI pH 1.5. In a similar manner the affinities for cynomolgus and mouse IL23R Fc chimera (R&D Systems, Cat. No. 1686-MR-050) was measured. The apparent dissociation (kd) and association (ka) rate constants and the apparent dissociation equilibrium constant (KD) were calculated with the MASS-1 analysis software (Analyzer, Sierra Sensors) using one-to-one Langmuir binding model.

[3] = target: T2, recombinant human IL23R Fc chimera (R&D Systems, Cat. No. 1400-IR-050) (human, UniProt Q5VWK5 24-353); experiment: as above
T2 construct: Bought reagent; not shown: Fc part (and any linker) of the bought chimera; captured by an anti-human IgG Fc antibody
T2 sequence (looked up): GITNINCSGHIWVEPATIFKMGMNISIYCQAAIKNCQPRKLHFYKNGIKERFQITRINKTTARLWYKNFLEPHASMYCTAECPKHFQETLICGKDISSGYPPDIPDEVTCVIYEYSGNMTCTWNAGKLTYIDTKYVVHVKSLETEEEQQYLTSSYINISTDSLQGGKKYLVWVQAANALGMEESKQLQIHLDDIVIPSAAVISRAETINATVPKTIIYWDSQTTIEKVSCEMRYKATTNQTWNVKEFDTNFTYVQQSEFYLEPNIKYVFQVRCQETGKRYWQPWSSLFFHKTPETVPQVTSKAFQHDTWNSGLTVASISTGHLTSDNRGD
Experimental: as §1

[4] = target: T3, cynomolgus IL23R Fc chimera (cynomolgus monkey, UniProt G7NWY5 24-353); experiment: as above
T3 construct: Named only in the method sentence 'cynomolgus and mouse IL23R Fc chimera'; also called cyno IL23R; not shown: Fc part of the chimera
T3 sequence: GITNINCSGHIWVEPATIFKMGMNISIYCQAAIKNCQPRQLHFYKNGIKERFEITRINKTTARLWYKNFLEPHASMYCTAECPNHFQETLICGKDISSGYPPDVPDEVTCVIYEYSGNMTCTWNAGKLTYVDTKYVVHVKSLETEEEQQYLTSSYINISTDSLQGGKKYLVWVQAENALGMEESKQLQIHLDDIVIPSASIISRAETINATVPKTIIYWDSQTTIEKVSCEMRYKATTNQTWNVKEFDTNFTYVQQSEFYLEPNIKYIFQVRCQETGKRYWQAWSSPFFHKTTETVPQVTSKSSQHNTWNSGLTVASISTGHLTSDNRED
Experimental: as §1

[5] = target: T4, mouse IL23R (as used in the SPR of PRO387 and PRO386) (mouse, UniProt Q8K4B4 24-372, limits assumed); experiment: SPR
T4 sequence (looked up): T1 sequence (looked up)

[6] = target: T4, mouse IL23R (as used in the SPR of …); experiment: SPR; remark: listed apart in the source
[7] = target: mouse CD3 (mouse CD36E [sic], Sino Biologicals Inc., Cat. No. CT033-M2508H) (mouse) (UniProt P22646); experiment: SPR; remark: listed apart in the source

Sequence of mouse CD3 (mouse CD36E [sic], Sino Biologicals Inc., Cat. No. CT033-M2508H) (mouse) (P22646 22-108, chain 1 of 2): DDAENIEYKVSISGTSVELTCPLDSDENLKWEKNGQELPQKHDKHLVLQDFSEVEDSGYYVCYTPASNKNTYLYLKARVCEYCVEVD
Sequence of mouse CD3 (mouse CD36E [sic], Sino Biologicals Inc., Cat. No. CT033-M2508H) (mouse) (P04235 22-105, chain 2 of 2, further chain): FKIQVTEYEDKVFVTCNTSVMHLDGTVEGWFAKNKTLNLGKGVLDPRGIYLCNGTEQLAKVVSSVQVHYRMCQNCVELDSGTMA

Kd [1]: 11.4 nM
koff [1]: 0.00266 s⁻¹
kon [1]: 233000 M⁻¹ s⁻¹
B1: PRO400 (Fab, V domains shown)
VH: EVQLVESGGGLVQPGKSLKLSCEASGFTFSGYGMHWVRQAPGRGLESVAYITSSSINIKYADAVKGRFTVSRDNAKNLLFLQMNILKSEDTAMYYCARFDWDKNYWGQGTMVTVSS
VL: DIQMTQSPSSLPASLGDRVTINCQASQDISNYLNWYQQKPGKAPKLLIYYTNKLADGVPSRFSGSGSGRDSSFTISSLESEDIGSYYCQQYYNYPWTFGPGTKLEIKR

Kd [2]: 2.21 nM
koff [2]: 0.00418 s⁻¹
kon [2]: 1.89e+06 M⁻¹ s⁻¹
Kd [3]: 0.116 nM
koff [3]: 0.000259 s⁻¹
kon [3]: 2.24e+06 M⁻¹ s⁻¹
Kd [4]: 0.124 nM
koff [4]: 0.000361 s⁻¹
kon [4]: 2.92e+06 M⁻¹ s⁻¹
B2: 14-11-D07-sc01 (scFv)
scFv: DIQMTQSPSSLSASVGDRVTITCQASENIYSFLAWYQQKPGKAPKLLIYSASKLAAGVPSRFSGSGSGTDFTLTISSLQPEDFATYYCQQTNRYSNPDIYNVFGQGTKLTVLGGGGGSGGGGSGGGGSGGGGSEVQLVESGGGLVQPGGSLRLSCAASGIDFNSNYYMCWVRQAPGKGLEWIGCIYVGSHVNTYYANWAKGRFTISRDNSKNTVYLQMNSLRAEDTAVYYCATSGSSVLYFKFWGQGTLVTVSS
notes: Humanized scFv (CDR graft on a VK1/VH3 framework); also called anti-IL23R scFv 14-11-D07-sc01

Kd [5]: 4.66 nM
koff [5]: 0.00326 s⁻¹
kon [5]: 701000 M⁻¹ s⁻¹
Kd [1]: 9.11 nM
koff [1]: 0.00213 s⁻¹
kon [1]: 233000 M⁻¹ s⁻¹
B3: PRO387 (bispecific antibody)
chain: DIQMTQSPSSLSASVGDRVTITCQASENIYSFLAWYQQKPGKAPKLLIYSASKLAAGVPSRFSGSGSGTDFTLTISSLQPEDFATYYCQQTNRYSNPDIYNVFGQGTKLTVLGGGGGSEVQLVESGGGLVQPGKSLKLSCEASGFTFSGYGMHWVRQAPGRGLESVAYITSSSINIKYADAVKGRFTVSRDNAKNLLFLQMNILKSEDTAMYYCARFDWDKNYWGQGTMVTVSSGGGGSGGGGSGGGGSGGGGSDIQMTQSPSSLPASLGDRVTINCQASQDISNYLNWYQQKPGKAPKLLIYYTNKLADGVPSRFSGSGSGRDSSFTISSLESEDIGSYYCQQYYNYPWTFGPGTKLEIKRGGGGSEVQLVESGGGLVQPGGSLRLSCAASGIDFNSNYYMCWVRQAPGKGLEWIGCIYVGSHVNTYYANWAKGRFTISRDNSKNTVYLQMNSLRAEDTAVYYCATSGSSVLYFKFWGQGTLVTVSS
notes: also called PRO387 (scDb); surrogate scDb

Kd [6]: 0.583 nM
koff [6]: 0.000533 s⁻¹
kon [6]: 915000 M⁻¹ s⁻¹
Kd [7]: 11.5 nM
koff [7]: 0.00196 s⁻¹
kon [7]: 171000 M⁻¹ s⁻¹
B4: PRO386 (bispecific antibody)
light: DIQMTQSPSSLPASLGDRVTINCQASQDISNYLNWYQQKPGKAPKLLIYYTNKLADGVPSRFSGSGSGRDSSFTISSLESEDIGSYYCQQYYNYPWTFGPGTKLEIKRRTVAAPSVFIFPPSDEQLKSGTASVVCLLNNFYPREAKVQWKVDNALQSGNSQESVTEQDSKDSTYSLSSTLTLSKADYEKHKVYACEVTHQGLSSPVTKSFNRGECGGGGSGGGGSHMDIQMTQSPSSLSASVGDRVTITCQASENIYSFLAWYQQKPGKAPKLLIYSASKLAAGVPSRFSGSGSGTDFTLTISSLQPEDFATYYCQQTNRYSNPDIYNVFGQGTKLTVLGGGGGSGGGGSGGGGSGGGGSEVQLVESGGGLVQPGGSLRLSCAASGIDFNSNYYMCWVRQAPGKGLEWIGCIYVGSHVNTYYANWAKGRFTISRDNSKNTVYLQMNSLRAEDTAVYYCATSGSSVLYFKFWGQGTLVTVSS
heavy: EVQLVESGGGLVQPGKSLKLSCEASGFTFSGYGMHWVRQAPGRGLESVAYITSSSINIKYADAVKGRFTVSRDNAKNLLFLQMNILKSEDTAMYYCARFDWDKNYWGQGTMVTVSSASTKGPSVFPLAPSSKSTSGGTAALGCLVKDYFPEPVTVSWNSGALTSGVHTFPAVLQSSGLYSLSSVVTVPSSSLGTQTYICNVNHKPSNTKVDKKVEPKSCGGGGSGGGGSHMDIQMTQSPSSLSASVGDRVTITCQASENIYSFLAWYQQKPGKAPKLLIYSASKLAAGVPSRFSGSGSGTDFTLTISSLQPEDFATYYCQQTNRYSNPDIYNVFGQGTKLTVLGGGGGSGGGGSGGGGSGGGGSEVQLVESGGGLVQPGGSLRLSCAASGIDFNSNYYMCWVRQAPGKGLEWIGCIYVGSHVNTYYANWAKGRFTISRDNSKNTVYLQMNSLRAEDTAVYYCATSGSSVLYFKFWGQGTLVTVSS
notes: Heterodimer; bispecific and trivalent (one anti-CD3 Fab, two anti-IL23R scFvs); also called PRO386 (Tribody); Fab-scFv fusion surrogate
